Experiment [1] has as its target yeast Dcn1 potentiating neddylation domain (yDcn1^P) (yeast) (UniProt Q12395). Nature of the experiment: ITC.
In experiment [2] the target is human Dcn1 potentiating neddylation domain (hDcn1^P) (human) (UniProt Q96GG9). Description: ITC. On the technique in general: In ITC the heat of successive injections is recorded.
Sequence of UniProt Q96GG9 (Q96GG9 62-259): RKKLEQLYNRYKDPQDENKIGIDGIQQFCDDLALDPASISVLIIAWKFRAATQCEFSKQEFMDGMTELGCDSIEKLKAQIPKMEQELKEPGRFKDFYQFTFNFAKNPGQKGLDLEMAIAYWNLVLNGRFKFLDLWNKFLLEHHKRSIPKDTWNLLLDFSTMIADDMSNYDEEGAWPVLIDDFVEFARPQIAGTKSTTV

Sequence of UniProt Q12395 (Q12395 70-269): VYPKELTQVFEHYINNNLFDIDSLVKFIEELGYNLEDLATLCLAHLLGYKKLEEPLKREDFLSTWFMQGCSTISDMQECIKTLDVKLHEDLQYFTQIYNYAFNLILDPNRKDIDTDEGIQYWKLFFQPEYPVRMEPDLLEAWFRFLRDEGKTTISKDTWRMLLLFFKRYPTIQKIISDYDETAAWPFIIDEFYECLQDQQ

“N-terminally formylated yeast Ubc12 peptide”: in experiment [1], the fold change of Kd against the acetylated peptide (weaker binding) was 17 fold and the fold improvement of binding over the unacetylated peptide stood at 10 fold.

In the case of “N-terminally formylated human Ubc12 peptide”, in experiment [2], the fold change of Kd against the acetylated peptide (weaker binding) stood at 9 fold and the fold improvement of binding over the unacetylated peptide stood at 10 fold.

For the origin of these results see paper PMC3214010.
